The target of data set [1] is T1, His6-Ovol1 (UniProt Q9WTJ2 1-267). Put plainly: EMSA. On the technique in general: A gel shift assay detects complexes by their altered migration in electrophoresis.
Data set [2] deals with c-Myb R2R3 (chicken, UniProt P01103 87-193). Put plainly: EMSA.
The target in data set [3] is T1, His6-Ovol1. In words: competition.

T1 sequence (Q9WTJ2 whole entry): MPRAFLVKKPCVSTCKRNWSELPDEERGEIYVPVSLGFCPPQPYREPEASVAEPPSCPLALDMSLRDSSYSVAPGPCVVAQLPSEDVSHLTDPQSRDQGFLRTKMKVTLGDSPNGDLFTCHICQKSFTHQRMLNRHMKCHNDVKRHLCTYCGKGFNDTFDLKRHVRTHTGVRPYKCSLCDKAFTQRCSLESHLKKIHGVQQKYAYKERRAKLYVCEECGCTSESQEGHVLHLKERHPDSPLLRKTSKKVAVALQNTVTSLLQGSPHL
Sequence of c-Myb R2R3 (P01103 87-193): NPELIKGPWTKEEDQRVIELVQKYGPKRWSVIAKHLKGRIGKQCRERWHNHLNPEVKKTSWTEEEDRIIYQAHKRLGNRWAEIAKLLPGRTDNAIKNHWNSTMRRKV

B1: mim-C (dsDNA)
DNA 1: GTTGATTTCCATCTGTTATTTGAGCTAAG
DNA 2: CTTAGCTCAAATAACAGATGGAAATCAAC
Turning to B1, in data set [1], the binding result is on record as “no binding”.

B2: mim-A (dsDNA)
DNA 1: AGCGCTAAAAAACCGTTATAATGTGCAGAT
DNA 2: ATCTGCACATTATAACGGTTTTTTAGCGCT
Regarding B2, the binding result in data set [2] and in data set [3] was “binds” in each case.

The values are drawn from PMC1865076.
